From patent US20130230868A1 (SIEMENS HEALTHCARE DIAGNOSTICS, published 2013)

Columns and labels:
[1] = target: recombinant gain-of-function GPIbα protein fragment (amino acids 1-285 with amino acid substitutions G233V and M239V) (human) (UniProt P07359); assay: latex particle agglutination (turbidimetry, 570 nm); inhibition of VWF-GPIbα complex formation by 10 µg/ml AK2 in normal plasma pool
[2] = target: recombinant gain-of-function GPIbα protein fragment (amino acids 1-285 with amino acid substitutions G233V and M239V) (human) (UniProt P07359); assay: latex particle agglutination (turbidimetry, 570 nm); inhibition of VWF-GPIbα complex formation by 20 µg/ml AK2 in normal plasma pool
[3] = target: T1, von Willebrand factor (VWF) in plasma (human, UniProt P04275 764-2813); assay: latex particle agglutination, turbidimetry at 570 nm
T1 construct: mature; Native multimeric VWF present in plasma, not purified; The number of monomers per multimer varies; also called VWF protein
Experimental: The sample used was human citrated plasma from six different donors. 60 μl of sample were mixed with 20 μl of plasma containing VWF (91% of norm VWF, control plasma N, Siemens Healthcare Diagnostics Products GmbH, Marburg, Germany), 13 μl of a solution containing a recombinant gain-of-function GPIbα protein fragment (amino acids 1-285 with amino acid substitutions G233V and M239V; 8.4 μg/ml) and 70 μl of an NaCl buffer and incubated for two minutes. Subsequently, 40 μl of a latex particle reagent containing latex particles coated with anti-GPIbα antibodies were added to the assay mix.
Absorbance at 570 nm of the reaction mixture was measured turbidimetrically. Binding of VWF to GPIbα and binding of the GPIbα protein to the latex particles result in particle agglutination. This agglutination leads to an increase in absorbance, the maximum rate of which is determined (mU/min).

Q: With anti-GPIb antibody AK2 as the molecule, how does the Rate of agglutination [1] read?
A: Its Rate of agglutination is 266 mU/min.

Q: And the Rate of agglutination [2]?
A: The Rate of agglutination was 133 mU/min.

B1: recombinant gain-of-function GPIbα protein fragment (amino acids 1-285 with amino acid substitutions G233V and M239V) (receptor)
chain: HPICEVSKVASHLEVNCDKRNLTALPPDLPKDTTILHLSENLLYTFSLATLMPYTRLTQLNLDRCELTKLQVDGTLPVLGTLDLSHNQLQSLPLLGQTLPALTVLDVSFNRLTSLPLGALRGLGELQELYLKGNELKTLPPGLLTPTPKLEKLSLANNNLTELPAGLLNGLENLDTLLLQENSLYTIPKGFFGSHLLPFAFLHGNPWLCNCEILYFRRWLQDNAENVYVWKQVVDVKAVTSNVASVQCDNSDKFPVYKYPGKGCPTLGDEGDTDLYDYYPEEDTE
Q: Does B1 bind [3]?
A: Result: binds
